In the supplement of paper PMC9112550, “Optimization of the antimicrobial peptide Bac7 by deep mutational scanning” (BMC Biology, 2022):
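Further: peptides expressed intracellularly from a pBAD plasmid library in pooled LB shake-flask culture, induced with 0.3% L-arabinose, DNA abundance read by NGS, three biological replicates, DESeq2 with apeglm shrinkage.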

The sequences below were run on Escherichia coli TOP10 (assay: shrunken log2 fold change of peptide-encoding DNA abundance (4.5 h post-induction vs induction); higher = less antimicrobial activity (less host growth inhibition)). Details: time post-induction: 4.5 h; library: site-saturation at positions 5, 18, 19, 20.
With RRIRMRPPRLPRPRPRPWNYPRP the “shrunken log2 fold change” value was -0.203.
For RRIRHRPPRLPRPRPRPGKCPRP, the “shrunken log2 fold change” value was -0.00911.
RRIRTRPPRLPRPRPRPACNPRP was tested, and the “shrunken log2 fold change” value was 0.0894.
With RRIRNRPPRLPRPRPRPMLQPRP the “shrunken log2 fold change” value was 0.00157.
RRIRNRPPRLPRPRPRPHQEPRP was tested, and the “shrunken log2 fold change” value was -0.00146.
In the case of RRIRARPPRLPRPRPRPNQRPRP, the “shrunken log2 fold change” value was 0.532.
In the case of RRIRKRPPRLPRPRPRPVLGPRP, the “shrunken log2 fold change” value was 0.977.
RRIRKRPPRLPRPRPRPVREPRP was tested, and the “shrunken log2 fold change” value was 0.817.
With RRIRTRPPRLPRPRPRPKITPRP the “shrunken log2 fold change” value was -0.464.
For RRIRNRPPRLPRPRPRPRFFPRP, the “shrunken log2 fold change” value was -0.0927.
RRIRWRPPRLPRPRPRPVVEPRP was tested, and the “shrunken log2 fold change” value was 0.0281.
RRIRMRPPRLPRPRPRPRMWPRP was tested, and the “shrunken log2 fold change” value was 1.04.
In the case of RRIRFRPPRLPRPRPRPETYPRP, the “shrunken log2 fold change” value was -0.0354.
For RRIRFRPPRLPRPRPRPIIVPRP, the “shrunken log2 fold change” value was -0.394.
RRIRPRPPRLPRPRPRPIKAPRP was tested, and the “shrunken log2 fold change” value was -0.00863.
In the case of RRIRERPPRLPRPRPRPILMPRP, the “shrunken log2 fold change” value was -0.317.
With RRIRTRPPRLPRPRPRPFMGPRP the “shrunken log2 fold change” value was -0.0574.
RRIRQRPPRLPRPRPRPCKSPRP was tested, and the “shrunken log2 fold change” value was 0.00854.
In the case of RRIRYRPPRLPRPRPRPRIKPRP, the “shrunken log2 fold change” value was -0.502.
RRIRSRPPRLPRPRPRPVFMPRP was tested, and the “shrunken log2 fold change” value was -0.236.
With RRIRPRPPRLPRPRPRPQVRPRP the “shrunken log2 fold change” value was -0.13.
With RRIRDRPPRLPRPRPRPPMHPRP the “shrunken log2 fold change” value was 0.319.
RRIRARPPRLPRPRPRPPTCPRP was tested, and the “shrunken log2 fold change” value was 0.559.
RRIRKRPPRLPRPRPRPNPSPRP was tested, and the “shrunken log2 fold change” value was 0.108.
With RRIRVRPPRLPRPRPRPKQRPRP the “shrunken log2 fold change” value was 0.157.
For RRIRPRPPRLPRPRPRPPMHPRP, the “shrunken log2 fold change” value was 0.359.
RRIRQRPPRLPRPRPRPYVLPRP was tested, and the “shrunken log2 fold change” value was -0.512.
With RRIRLRPPRLPRPRPRPEHAPRP the “shrunken log2 fold change” value was -0.00513.
For RRIRNRPPRLPRPRPRPVHQPRP, the “shrunken log2 fold change” value was -0.121.
RRIRKRPPRLPRPRPRPEKNPRP was tested, and the “shrunken log2 fold change” value was 0.987.
In the case of RRIRQRPPRLPRPRPRPLKWPRP, the “shrunken log2 fold change” value was 0.0646.
With RRIRIRPPRLPRPRPRPNGYPRP the “shrunken log2 fold change” value was -0.0764.
RRIRNRPPRLPRPRPRPQNKPRP was tested, and the “shrunken log2 fold change” value was -0.666.
With RRIRIRPPRLPRPRPRPNVRPRP the “shrunken log2 fold change” value was 0.0422.
With RRIRHRPPRLPRPRPRPVLKPRP the “shrunken log2 fold change” value was -0.295.
With RRIRRRPPRLPRPRPRPNNIPRP the “shrunken log2 fold change” value was -0.556.
With RRIRARPPRLPRPRPRPAIFPRP the “shrunken log2 fold change” value was 0.562.
With RRIRTRPPRLPRPRPRPSDSPRP the “shrunken log2 fold change” value was -0.214.
RRIRHRPPRLPRPRPRPNLCPRP was tested, and the “shrunken log2 fold change” value was 0.0613.
In the case of RRIRIRPPRLPRPRPRPGSRPRP, the “shrunken log2 fold change” value was -0.0379.
RRIRHRPPRLPRPRPRPMNMPRP was tested, and the “shrunken log2 fold change” value was -0.00968.
In the case of RRIRYRPPRLPRPRPRPKFQPRP, the “shrunken log2 fold change” value was -0.0557.
In the case of RRIRMRPPRLPRPRPRPNECPRP, the “shrunken log2 fold change” value was 0.175.
For RRIRHRPPRLPRPRPRPRGRPRP, the “shrunken log2 fold change” value was -0.0974.
For RRIRPRPPRLPRPRPRPIDYPRP, the “shrunken log2 fold change” value was -0.13.
With RRIRVRPPRLPRPRPRPPAVPRP the “shrunken log2 fold change” value was 0.523.
In the case of RRIRVRPPRLPRPRPRPLHRPRP, the “shrunken log2 fold change” value was -0.0175.
With RRIRRRPPRLPRPRPRPYIEPRP the “shrunken log2 fold change” value was -0.338.
RRIRYRPPRLPRPRPRPNGHPRP was tested, and the “shrunken log2 fold change” value was -0.24.
In the case of RRIRCRPPRLPRPRPRPYTHPRP, the “shrunken log2 fold change” value was -1.19.
RRIRGRPPRLPRPRPRPSYCPRP was tested, and the “shrunken log2 fold change” value was 0.237.
For RRIRLRPPRLPRPRPRPTSKPRP, the “shrunken log2 fold change” value was -0.253.
In the case of RRIRWRPPRLPRPRPRPTRLPRP, the “shrunken log2 fold change” value was 0.411.
In the case of RRIRIRPPRLPRPRPRPLCLPRP, the “shrunken log2 fold change” value was -0.736.
RRIRLRPPRLPRPRPRPDMWPRP was tested, and the “shrunken log2 fold change” value was -0.0873.
With RRIRNRPPRLPRPRPRPAHKPRP the “shrunken log2 fold change” value was 0.00838.
In the case of RRIRVRPPRLPRPRPRPCNGPRP, the “shrunken log2 fold change” value was 0.00489.
For RRIRYRPPRLPRPRPRPAFGPRP, the “shrunken log2 fold change” value was -0.21.
RRIRCRPPRLPRPRPRPATTPRP was tested, and the “shrunken log2 fold change” value was 0.151.
With RRIRARPPRLPRPRPRPRLLPRP the “shrunken log2 fold change” value was 0.526.
For RRIRIRPPRLPRPRPRPPFQPRP, the “shrunken log2 fold change” value was 0.0365.
With RRIRKRPPRLPRPRPRPDAVPRP the “shrunken log2 fold change” value was 0.698.
With RRIRERPPRLPRPRPRPPQQPRP the “shrunken log2 fold change” value was 0.00573.
RRIRDRPPRLPRPRPRPQSPPRP was tested, and the “shrunken log2 fold change” value was 0.0974.
With RRIRVRPPRLPRPRPRPQDWPRP the “shrunken log2 fold change” value was -0.132.
With RRIRMRPPRLPRPRPRPSQQPRP the “shrunken log2 fold change” value was 0.463.
In the case of RRIRIRPPRLPRPRPRPLRCPRP, the “shrunken log2 fold change” value was -0.14.
With RRIRQRPPRLPRPRPRPVGSPRP the “shrunken log2 fold change” value was 0.317.
With RRIRGRPPRLPRPRPRPSRIPRP the “shrunken log2 fold change” value was -0.234.
In the case of RRIRRRPPRLPRPRPRPAGVPRP, the “shrunken log2 fold change” value was 0.518.
RRIRHRPPRLPRPRPRPDQNPRP was tested, and the “shrunken log2 fold change” value was -0.14.
With RRIRGRPPRLPRPRPRPDIIPRP the “shrunken log2 fold change” value was 0.188.
With RRIRVRPPRLPRPRPRPVKSPRP the “shrunken log2 fold change” value was -0.0272.
With RRIRQRPPRLPRPRPRPRREPRP the “shrunken log2 fold change” value was 0.08.
With RRIRMRPPRLPRPRPRPEEDPRP the “shrunken log2 fold change” value was 0.0356.
In the case of RRIRRRPPRLPRPRPRPCGRPRP, the “shrunken log2 fold change” value was -0.0337.
In the case of RRIRTRPPRLPRPRPRPRNGPRP, the “shrunken log2 fold change” value was -0.0659.
With RRIRDRPPRLPRPRPRPIDCPRP the “shrunken log2 fold change” value was 0.0306.
With RRIRMRPPRLPRPRPRPRDCPRP the “shrunken log2 fold change” value was 0.288.
RRIRCRPPRLPRPRPRPVFVPRP was tested, and the “shrunken log2 fold change” value was -0.136.
With RRIRYRPPRLPRPRPRPKNSPRP the “shrunken log2 fold change” value was -1.22.
In the case of RRIRKRPPRLPRPRPRPTQSPRP, the “shrunken log2 fold change” value was 0.441.
For RRIRKRPPRLPRPRPRPWCYPRP, the “shrunken log2 fold change” value was -0.168.
With RRIRARPPRLPRPRPRPSQLPRP the “shrunken log2 fold change” value was 0.262.
For RRIRLRPPRLPRPRPRPPHPPRP, the “shrunken log2 fold change” value was 0.404.
For RRIRRRPPRLPRPRPRPKFFPRP, the “shrunken log2 fold change” value was -0.00723.
For RRIRSRPPRLPRPRPRPDWTPRP, the “shrunken log2 fold change” value was -0.179.
For RRIRCRPPRLPRPRPRPPEKPRP, the “shrunken log2 fold change” value was 0.299.
RRIRSRPPRLPRPRPRPNEKPRP was tested, and the “shrunken log2 fold change” value was -0.0451.
With RRIRFRPPRLPRPRPRPKCSPRP the “shrunken log2 fold change” value was -0.0194.
For RRIRERPPRLPRPRPRPPEKPRP, the “shrunken log2 fold change” value was -0.0038.
In the case of RRIRYRPPRLPRPRPRPQHYPRP, the “shrunken log2 fold change” value was -0.466.
With RRIRNRPPRLPRPRPRPSQFPRP the “shrunken log2 fold change” value was -0.16.
For RRIRLRPPRLPRPRPRPENLPRP, the “shrunken log2 fold change” value was 0.0256.
With RRIRPRPPRLPRPRPRPVQHPRP the “shrunken log2 fold change” value was 0.278.
With RRIRYRPPRLPRPRPRPTGPPRP the “shrunken log2 fold change” value was 0.0492.
RRIRSRPPRLPRPRPRPRRRPRP was tested, and the “shrunken log2 fold change” value was 0.312.
With RRIRVRPPRLPRPRPRPNCTPRP the “shrunken log2 fold change” value was -0.0535.
In the case of RRIRKRPPRLPRPRPRPEGHPRP, the “shrunken log2 fold change” value was 0.0594.
For RRIRKRPPRLPRPRPRPFWVPRP, the “shrunken log2 fold change” value was -0.175.
In the case of RRIRFRPPRLPRPRPRPPVYPRP, the “shrunken log2 fold change” value was -0.124.
In the case of RRIRKRPPRLPRPRPRPLGVPRP, the “shrunken log2 fold change” value was 0.438.
With RRIRSRPPRLPRPRPRPLQEPRP the “shrunken log2 fold change” value was 0.144.
With RRIRERPPRLPRPRPRPDCWPRP the “shrunken log2 fold change” value was -0.0875.
With RRIRERPPRLPRPRPRPLIYPRP the “shrunken log2 fold change” value was -0.682.
With RRIRARPPRLPRPRPRPMCSPRP the “shrunken log2 fold change” value was 0.334.
With RRIRSRPPRLPRPRPRPCTPPRP the “shrunken log2 fold change” value was -0.312.
For RRIRERPPRLPRPRPRPGYVPRP, the “shrunken log2 fold change” value was -0.227.
RRIRFRPPRLPRPRPRPSRNPRP was tested, and the “shrunken log2 fold change” value was -0.346.
